For orientation: Km means the substrate concentration at which the rate is half of its maximum. As usually defined, the kcat is the number of substrate molecules converted per active site and unit of time at saturation. In general, kcat/Km refers to the second-order rate constant that governs catalysis at low substrate concentration.

Data set [1] has as its target phytase YeAPPA variant YeAPPA-L162A (Leu162 into alanine), SEQ ID NO.4 (Yersinia enterocolitica, UniProt D9D7K9, L162A). Briefly: Kinetic parameters of phytase variant YeAPPA-L162A on sodium phytate. As to conditions: YeAPPA-L162A vs wild phytase, in words.
The target of data set [2] is phytase YeAPPA variant YeAPPA-E230G (Glu230 into glycine), SEQ ID NO.5 (Yersinia enterocolitica, UniProt D9D7K9, E230G). The data set can be described thus: Kinetic parameters of phytase variant YeAPPA-E230G on sodium phytate. The settings on record: YeAPPA-E230G vs wild phytase.
Data set [3] concerns the target phytase YeAPPA variant YeAPPA-E230R (Glu230 into arginine), SEQ ID NO.7 (Yersinia enterocolitica, UniProt D9D7K9, E230R). The data set can be described thus: Kinetic parameters of phytase variant YeAPPA-E230R on sodium phytate. The settings on record: YeAPPA-E230R vs wild phytase, in words.
The target of data set [4] is phytase YeAPPA variant YeAPPA-E230P (Glu230 into proline), SEQ ID NO.6 (Yersinia enterocolitica, UniProt D9D7K9, E230P). Briefly: Kinetic parameters of phytase variant YeAPPA-E230P on sodium phytate. As to conditions: YeAPPA-E230P vs wild phytase, in words. Here is the method:
According to embodiment of the present invention, the phytase variant YeAPPA-E230P with amino acid sequence as set forth in SEQ ID NO.6 is obtained by mutation at the 230th site of glutamic acid into proline for phytase with amino acid as set forth in SEQ ID NO.1.
The modified gene encoding the phytase variants were inserted into expression vector pET-22b (+), and transformed into E coli.
The effect of pepsin on the activity of the purified mutant phytase was determined by detecting the remained activity after being treated in pH 2 for 2 hours with the different concentrations of pepsin in a mass ratio to phytase ranging from 1/1000 to 1/1. […] After developing, OD is measured at 700 nm to calculate the phytase activity. 1 unit of phytase activity is determined to be the enzyme amount releasing 1 μmol of phosphate for 1 minute. The absolute value of the measured phytase activity may be calculated based on the standard curve of inorganic phosphate in dilution.

Data set [5] addresses wild phytase YeAPPA, SEQ ID NO.1 (Yersinia enterocolitica, UniProt D9D7K9). The data set can be described thus: Kinetic parameters of wild phytase on sodium phytate (double reciprocal method). As to conditions: optimal pH 5, 45° C. In kind it is biochemical.
Data set [6] concerns the target phytase YeAPPA variant YeAPPA-L162G (Leu162 into glycine), SEQ ID NO.3 (Yersinia enterocolitica, UniProt D9D7K9, L162G). The data set can be described thus: Kinetic parameters of phytase variant YeAPPA-L162G on sodium phytate. As to conditions: YeAPPA-L162G vs wild phytase.
In data set [7] the test system is O=P(O)(O)O[C@H]1[C@H](OP(=O)(O)O)[C@@H](OP(=O)(O)O)[C@H](OP(=O)(O)O)[C@@H](OP(=O)(O)O)[C@H]1OP(=O)(O)O. The data set can be described thus: purified protein, by the assay type. The settings on record: sodium phytate 0.0625-1.5 mmol/L.
The mark [8] stands for this setting: other: YeAPPA-E230G, optimal pH 5, 45° C.
Setting [9] is: other: YeAPPA-E230P, optimal pH 5, 50° C.
[10] abbreviates: other: YeAPPA-E230R, optimal pH 4, 45° C.
Setting [11] is: other: YeAPPA-L162A, optimal pH 5, 45° C.
Setting [12] is: other: YeAPPA-L162G, optimal pH 5, 45° C.

As for `O=P(O)(O)O[C@H]1[C@H](OP(=O)(O)O)[C@@H](OP(=O)(O)O)[C@H](OP(=O)(O)O)[C@@H](OP(=O)(O)O)[C@H]1OP(=O)(O)O` [sodium phytate], the “reaction rate, conversion rate and catalytic efficiency compared with wild phytase” value (shortened to “reaction rate … compared with wild phytase”) in data set [1] is on record as “almost same as those of the wild phytase”. Also, in data set [2], the “Catalytic efficiency Kcat/km relative to wild phytase” value turned out to be 2.5 times, the “Conversion rate Kcat relative to wild phytase” value is on record as 2.5 times and the “Reaction rate Vmax relative to wild phytase” value is listed as 2.5 times. For the same molecule, the “reaction rate … compared with wild phytase” value in data set [3] was “almost same as those of the wild phytase”. Further, in data set [4], the “reaction rate … compared with wild phytase” value is recorded as “almost same as those of the wild phytase”. In data set [5], the Kcat/Km worked out at 26 S^−1 mM^−1 and the Vmax is listed as 6.4 U mg^−1. In data set [5] (from theoretical molecular weight), the Kcat is 4.9 S^−1. In addition, the “Catalytic efficiency Kcat/km relative to wild phytase” value in data set [6] came out at 1.7 times.

Take “phytase YeAPPA variant YeAPPA-E230G (Glu230 into glycine), SEQ ID NO.5 (Yersinia enterocolitica; E230G)”: in data set [7] (setting [8]), the Km was found to be 190 µM, the Vmax stood at 16 µmol/min/mg, the kcat stood at 12 s⁻¹ and the kcat/Km came to 64000 M⁻¹ s⁻¹.

For the molecule “phytase YeAPPA variant YeAPPA-E230P (Glu230 into proline), SEQ ID NO.6 (Yersinia enterocolitica; E230P)”, in data set [7] (setting [9]), the Michaelis constant (Km) was 190 µM, the Vmax is 6.7 µmol/min/mg, the turnover number (kcat) came to 5.1 s⁻¹ and the specificity constant (kcat/Km) was determined as 26000 M⁻¹ s⁻¹.

Regarding “phytase YeAPPA variant YeAPPA-E230R (Glu230 into arginine), SEQ ID NO.7 (Yersinia enterocolitica; E230R)”, in data set [7] (setting [10]), the Km worked out at 180 µM, the Vmax came to 6.3 µmol/min/mg, the kcat was 4.8 s⁻¹ and the kcat/Km was determined as 26000 M⁻¹ s⁻¹.

Regarding “phytase YeAPPA variant YeAPPA-L162A (Leu162 into alanine), SEQ ID NO.4 (Yersinia enterocolitica; L162A)”, in data set [7] (setting [11]), the Km worked out at 190 µM, the Vmax came out at 6.5 µmol/min/mg, the kcat stood at 5 s⁻¹ and the kcat/Km was 27000 M⁻¹ s⁻¹.

Take “phytase YeAPPA variant YeAPPA-L162G (Leu162 into glycine), SEQ ID NO.3 (Yersinia enterocolitica; L162G)”: in data set [7] (setting [12]), the Km was determined as 190 µM, the Vmax turned out to be 11 µmol/min/mg, the turnover number (kcat) came to 8.2 s⁻¹ and the kcat/Km is 43000 M⁻¹ s⁻¹.
